The values that follow are results of earlier work, collected in patent publication US20100028328A1, “TOPICAL TREATMENT FOR DISEASES OF EYE SURFACE” (THERAKINE, LTD., priority 2006, published 2010).

The subject of series [1] is Herpetic Stromal Keratitis (HSK), Herpes simplex virus infection of the cornea. The conditions noted are these: treatment of HSK.
The subject of series [2] is allogeneic corneal transplants. The conditions noted are these: topical treatment.

As for IL-1 ra: receptor antagonist to IL-1, in series [1], the “influx of cells of the innate and adaptive immune system into the cornea” value is “reduce the influx of cells of the innate and adaptive immune system into the cornea”.

B1: TNFR-I: a TNF antagonist; topical soluble tumor necrosis factor receptor type I (protein, UniProt P19438 30-211, looked up)
extracellular domain: LVPHLGDREKRDSVCPQGKYIHPQNNSICCTKCHKGTYLYNDCPGPGQDTDCRECESGSFTASENHLRHCLSCSKCRKEMGQVEISSCTVDRDTVCGCRKNQYRHYWSENLFQCFNCSLCLNGTVHLSCQEKQNTVCTCHAGFFLRENECVSCSNCKKSLECTKLCLPQIENVKGTEDSGTT
modifications: extracellular domain
With B1, in series [2], the “acceptance of allogeneic corneal transplants” value is “promoted the acceptance of allogeneic corneal transplants” and the “gene expression of chemokines associated with corneal graft rejection (RANTES, macrophage inflammatory protein-1beta)” value is reported as “inhibited gene expression of 2 chemokines”.
